The results in this text go back to patent publication US20210364527A1.

The target in the assay is FA peptide (N-terminal phenylalanine, penultimate alanine; rest of sequence not given). Description: fluorescence polarization. Background: Polarisation of emitted light reports the rotation of a fluorescent probe.

B1: PS609 (Bis-atClpS2-V1, Linker 1) (designed binder)
chain: MSDSPVDLKPKPKVKPKLERPKLYKVMLLNDDYTPMSFVTVVLKAVFRMSEDTGRRVMMTAHRFGSAVVVVCERDIAETKAKEATDLGKEAGFPLMFTTEPEEGGGSGGGSGGGSGMSDSPVDLKPKPKVKPKLERPKLYKVMLLNDDYTPMSFVTVVLKAVFRMSEDTGRRVMMTAHRFGSAVVVVCERDIAETKAKEATDLGKEAGFPLMFTTEPEEGHHHHHHHHHHGGGSGGGSGGGSGLNDFFEAQKIEWHEGGGSGGGSGGGSGLNDFFEAQKIEWHE
For orientation: Kd means the constant that tells how readily two partners part at equilibrium. Read a high Kd as lower affinity. The molecule B1 showed a dissociation constant Kd of 221 nM.

B2: PS611 (Bis-atClpS2-V1, Linker 3) (designed binder)
chain: MSDSPVDLKPKPKVKPKLERPKLYKVMLLNDDYTPMSFVTVVLKAVFRMSEDTGRRVMMTAHRFGSAVVVVCERDIAETKAKEATDLGKEAGFPLMFTTEPEEGSAGSAAGSGEFGSAGSAAGSGEFGSAGSAAGSGEFMSDSPVDLKPKPKVKPKLERPKLYKVMLLNDDYTPMSFVTVVLKAVFRMSEDTGRRVMMTAHRFGSAVVVVCERDIAETKAKEATDLGKEAGFPLMFTTEPEEGHHHHHHHHHHGGGSGGGSGGGSGLNDFFEAQKIEWHEGGGSGGGSGGGSGLNDFFEAQKIEWHE
In turn, B2 showed a Kd of 137 nM.
